Reference: patent US20260240998A1 (JICHI MEDICAL UNIVERSITY, published 2026)

Target: T1, B-cell maturation antigen (BCMA) (human, UniProt Q02223 1-184)
T1 sequence (looked up): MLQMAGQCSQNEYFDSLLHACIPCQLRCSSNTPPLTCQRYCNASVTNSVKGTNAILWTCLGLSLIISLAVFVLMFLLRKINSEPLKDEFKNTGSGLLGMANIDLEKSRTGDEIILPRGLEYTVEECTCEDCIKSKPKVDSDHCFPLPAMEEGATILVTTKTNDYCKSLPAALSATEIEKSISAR
Assay: cell-based or functional assay

luminescence intensity ratio of the U266 co-culture group to the control group (transduced cells only): 62.8 times
B1: BCMA-CAR (L20H), LH construct derived from anti-BCMA antibody 1 with a 20 amino acid linker (other)
chain: DIVLTQSPASLAVSLGQRATISCRASKSVSTSGYSYMHWYQQKPGQPPRLLIYLASNLESGVPARFSGSGSGTDFTLNIHPVEEEDAATYYCQHSRELPFTFGSGTKLEIKGGGGSGGGGSGGGGSGGGGSEVQLQQSGPELVKPGASVKMSCKASGYTFTNYIIHWVKQKPGQGLEWIGYIIPYNDGSKYNEKFKGKATLTSDKSSSTAYMELSSLTSEDSAVYYCARLTFSYDSYAMDYWGQGTSVTVSSATGAAAIEVMYPPPYLDNEKSNGTIIHVKGKHLCPSPLFPGPSKPFWVLVVVGGVLACYSLLVTVAFIIFWVRSKRSRLLHSDYMNMTPRRPGPTRKHYQPYAPPRDFAAYRSRVKFSRSADAPAYQQGQNQLYNELNLGRREEYDVLDKRRGRDPEMGGKPRRKNPQEGLYNELQKDKMAEAYSEIGMKGERRRGKGHDGLYQGLSTATKDTYDALHMQALPPR
